Reference: patent US20060239990

Target: GST-Stat3 fusion protein (UniProt P42227)
Sequence (P42227 whole entry, the tested form may be a part): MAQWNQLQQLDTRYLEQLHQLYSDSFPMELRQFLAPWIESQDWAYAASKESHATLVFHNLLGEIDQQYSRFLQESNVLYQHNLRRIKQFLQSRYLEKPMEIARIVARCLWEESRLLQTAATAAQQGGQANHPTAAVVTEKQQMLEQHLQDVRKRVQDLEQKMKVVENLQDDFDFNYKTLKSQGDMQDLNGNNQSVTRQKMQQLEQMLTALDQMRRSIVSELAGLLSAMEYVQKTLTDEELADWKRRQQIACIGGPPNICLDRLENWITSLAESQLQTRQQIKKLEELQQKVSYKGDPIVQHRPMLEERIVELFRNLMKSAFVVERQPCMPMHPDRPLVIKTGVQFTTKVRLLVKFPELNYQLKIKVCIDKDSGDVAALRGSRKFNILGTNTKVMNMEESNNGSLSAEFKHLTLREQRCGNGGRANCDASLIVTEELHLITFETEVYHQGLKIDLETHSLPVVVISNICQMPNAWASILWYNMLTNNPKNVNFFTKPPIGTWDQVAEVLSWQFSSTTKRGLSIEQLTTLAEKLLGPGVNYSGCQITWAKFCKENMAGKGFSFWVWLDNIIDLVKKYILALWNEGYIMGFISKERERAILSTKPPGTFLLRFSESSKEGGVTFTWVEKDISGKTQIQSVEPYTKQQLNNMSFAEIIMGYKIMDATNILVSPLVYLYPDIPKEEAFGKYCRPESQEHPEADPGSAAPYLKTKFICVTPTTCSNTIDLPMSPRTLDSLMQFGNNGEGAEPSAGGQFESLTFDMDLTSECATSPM

mutated mouse PRMT2-Flag lacking functional Ado-Met domain (alanine for 145-GCGTG-149)
in vitro methylation with [3H]-AdoMet: transfection of neither vector alone nor mutated PRMT2-Flag cDNA induced methylation of GST-Stat3 (FIG. 20A, lanes 4 and 5)
